Reference: patent US20260226173A1 (Memorial Sloan Kettering, published 2026)
Substitutions are numbered along the chain they refer to.

B1: ESK2 clone #34 BiTE (bispecific antibody, V domains shown)
VH: QVQLVQSGTEVRKPGASLKVSCTTSGYIFTGYYIHWVRQVPGQGLEWMGWINPNSGVTEFAQGFQGRITMTRDTSTSTVYMELSRLTSDDTAVYYCAREGVWGYYDSWGQGTLVTVSS
VL: SSELTQDPAVSVALGQTVRITCQGDSLRSYYASWYQQKPGQAPVLVIYDKNNRPSGIPDRFSGSSSGNTASLTITGAQAEDEADYYCNSRDSSGNHHVVFGGGTKLTVLG
notes: made in CHO cells; also called ESK2-#34 BiTE
B2: ESK2 clone 15 (Clone 15 anti-WTMC antibody moiety), phage clone (scFv, V domains shown)
VH: QVQLVQSGAEVKKPGASVKVSCKASGYTFTDFYIHWVRQAPGQGPEWMGWVNPKSGGTNYAQKFQGRVTMTRDTSISTAYMALSRLRSDDTAVYYCARSWQGMSWESVEDVWGQGTLVTVSS
VL: QSVLTQPPSVSGAPGQRVTISCTGSSSNIGAGYDVHWYQQLPGTAPKLLIYGNSNRPSGVPDRFSGSKSGTSASLAITGLQAEDEADYYCQSYDSSLSGAVFGTGTKVTVLG
notes: Human scFv on phage (E-ALPHA library); also called ESK2-15
B3: ESK2 clone 17 (Clone 17 anti-WTMC antibody moiety), phage clone (scFv, V domains shown)
VH: EVQLVQSGAEVKKPGESLKISCKGSGYSFTSYWIGWVRQMPGKGLEWMGIIYPGDSDTRYSPSFQGQVTISADKSISTAYLQWSSLKASDTAVYYCARGGYIYYDAWGQGTLVTVSS
VL: SYVLTQPPSVSEAPRQRVTISCSGSRSNVGNNAVSWYQHLPGKAPKLLIYYDDLMPSGVSDRFSGSKSGTSASLAISGLQSEDEADYYCAAWDDSLNGLVFGGGTKLTVLG
notes: Human scFv on phage (E-ALPHA library); also called ESK2-17
B4: ESK2 clone 10 (Clone 10 anti-WTMC antibody moiety), phage clone (scFv, V domains shown)
VH: EVQLVESGGGVVQPGGSLRLSCAASGFTFDDYAMHWVRQAPGKGLEWVSLISGDGGSTYYADSVKGRFTISRDNSKNSLYLQMNSLRTEDTALYYCAKDMVAAAGWNPYYYYYGMDVWGQGTTVTVSS
VL: NFMLTQPHSVSESPGKTVTISCTRSSGGIATNYVQWYQQRPGNAPTAVIYVDNERPSGVPERFSGSIDTSSNSASLTISGLETEDEADYYCQSYDSNNHVVFGGGTKVTVLG
notes: Human scFv on phage (E-ALPHA library); also called ESK2-10
B5: ESK2 clone 12 (Clone 12 anti-WTMC antibody moiety), phage clone (scFv, V domains shown)
VH: EVQLVESGGGLVQPGGSLRLSCVVSGITVSNNYMTWVRQAPGKGLEWVSVIYSDGSTYYADSVRGRFTISRDISKNTVFLQMNSLRAEDTAMYYCASDKVAVAWTDGLDSWGQGTMVTVSS
VL: SSELTQDPTVSVALGQTVRITCQGDSLRSYYGGWYQQKPGQAPILVFHGQTNRPSGIPDRFSGSSSGNTVSLTITGAQAEDEADYYCSSRDSSGNHWVFGGGTKLTVLG
notes: Human scFv on phage (E-ALPHA library); also called ESK2-12
B6: ESK2 clone 1 (Clone 1 anti-WTMC antibody moiety), phage clone (scFv, V domains shown)
VH: EVQLVQSGAEVKKPGASVKVSCKASGYNFTSYGISWVRQAPGQGLEWMGWISAYNGNTNYAQKLQGRVTMTTDTSTSTAYMELRSLRSDDTAVYYCARDWDYDFLTGWDGMDVWGQGTTVTVSS
VL: QSVVTQPPSVSAAPGQKVTISCSGSSSNIGNNYVSWYQQLPGTAPKLLIYYNNKRPSGIPDRFSGSKSGTSATLGITGLQTGDEADYYCGTWDSSLSAGQVFGGGTKLTVLG
notes: Human scFv on phage (E-ALPHA library); also called ESK2-1
B7: ESK2 clone 36 (Clone 36 anti-WTMC antibody moiety), phage clone (scFv, V domains shown)
VH: EVQLVQSGAEVKKPGESLRISCKDSGYSFTSYWISWVRQMPGKGLEWMGRIDPSDSYTNYSPSFQGHVTISADKSISTAYLQWSSLKASDTAMYYCARMEIYSPDYWGQGTLVTVSS
VL: DIQLTQSPSSLSASVGDRVTISCRASQSINKYLNWYQQKPGEAPKLLIYGALRLQSGVPSRFSGSGSGTDYALTITSLQPEDFATYYCQQSYSTPLTFGGGTKVDIKR
notes: Human scFv on phage (E-ALPHA library); also called ESK2-36
B8: ESK2 clone 30 (Clone 30 anti-WTMC antibody moiety), phage clone (scFv, V domains shown)
VH: QVQLQESGGGLVQPGGSLRLSCAASGFTFSSYWMHWVRQAPGKGLVWVSRINSDGSSTSYADSVKGRFTISRDNAKNTLYLQMNSLRAEDTAVYYCARSGYYMSDIWGQGTLVTVSS
VL: NFMLTQPPSLSVAPGKTATITCGGNNIGSKSVHWYQQKPGQAPVLVISYDSDRPSGIPERFSGSKSGNTATLTISRVEAGDEADYYCQVWDSSSDQYVFGSGTKVTVLG
notes: Human scFv on phage (E-ALPHA library); also called ESK2-30
B9: ESK2 clone 26 (Clone 26 anti-WTMC antibody moiety), phage clone (scFv, V domains shown)
VH: QVQLVQSGGGLVQPGRSLRLSCAASGFTFDDYAMHWVRQAPGKGLEWVSGISWNSGSIGYADSVKGRFTISRDNAKNSLYLQMNSLRPEDTAVYYCARGYMGHNWYDWGQGTLVTVSS
VL: LPVLTQPPSVSVAPGKTARITCGGNDIGSKAVHWYQQKPGQAPVLVIYYNRDRPSGIPERFSGSNSGNTATLTISRVEAGDEADYYCQVWDSFSDHYVFGTGTKVTVLG
notes: Human scFv on phage (E-ALPHA library); also called ESK2-26
B10: ESK2 clone 32 (Clone 32 anti-WTMC antibody moiety), phage clone (scFv, V domains shown)
VH: QVQLVQSGAEVKKPGSSVKVSCKASGDTFSSYAVSWVRQAPGQGLEWMGAINLIFGTVKYAQKFQGRITITADESTSTAYMELSSLRSEDTAVYYCARGHWSQVWWTSHSYDLWGQGTLVTVSS
VL: B9 VL with L1Q, P2A, D26N, A31S, I47V, Y49D, N50D, R51S, F93S
notes: Human scFv on phage (E-ALPHA library); also called ESK2-32
B11: ESK2 clone #18 BiTE (bispecific antibody, V domains shown)
VH: not shown
VL: QSVLTQPPSVSGAPGQRVSISCTGSSSNIGAGYVVHWYQHLPGTVPKLLIYDNSNRPSGVPDRFSGSNSGSSASLAVTGLQAEDEADYYCQSYDSSLSGWVFGGGTKLTVLG
notes: made in CHO cells; also called ESK2-#18 BiTE; ESK2-BiTE clone #18
B12: ESK2 clone 14 (Clone 14 anti-WTMC antibody moiety), phage clone (scFv, V domains shown)
VH: EVQLVQSGAEVKKPGASVKISCKTSGYTFTDYYLHWVRQAPVQGLEWMGYVDPYDGYTHYAQNFQGRVTMTTDTSTSTAYMELSSLRSEDTAVYYCARFSGTRQDSHWGQGTLVTVSS
VL: QSALTQPPSASGSPGQSVTISCTGTSSDVGGYNYVSWYQQHPGKAPKLMIYEVSKRPSGVPDRFSGSKSGNTASLTVSGLQAEDEADYYCSSYAGSNNLAVVFGGGTKLTVLG
notes: Human scFv on phage (E-ALPHA library); also called ESK2-14
B13: ESK2 clone 11 (Clone 11 anti-WTMC antibody moiety), phage clone (scFv, V domains shown)
VH: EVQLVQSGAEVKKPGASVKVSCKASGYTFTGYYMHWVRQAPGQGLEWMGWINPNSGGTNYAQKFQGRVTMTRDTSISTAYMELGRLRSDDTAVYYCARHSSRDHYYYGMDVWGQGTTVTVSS
VL: QSVVTQPPSVSAAPGQRVTISCSGGSSNIGNNYVSWYQHLPGTAPKLLIYENNLKRPSGIPDRFSGSKSGTSATLGITGLQTGDEADYYCGTWDSSLNAGVFGGGTKLTVLG
notes: Human scFv on phage (E-ALPHA library); also called ESK2-11

Each binder was assayed against T1, TSTP1-10-mer (…)/HLA-A2 complex on T2 cells (human) (assay: flow cytometry, T2 cells alone or pulsed with peptide, stained with BiTE at 1 µg/ml, MFI).
T1 construct: Potential off-target peptide pulsed onto T2 cells; also called Tyrosyl protein sulfotransferase 1 peptide
B1: no binding (tested: 1 µg/ml).

What follows are binders tested against T2, WT1 RMF (…)/HLA-A2 complex on cells (human) (assay: flow cytometry, phage clones on RMF-pulsed T2 cells).
T2 construct: On T2 cells pulsed with the peptide, on cells expressing the RMF minigene, or naturally presented on WT1+/HLA-A2+ tumour cells; also called RMF/HLA-A2; WT1 RMF/A2 complex
B2: binds. B3: binds. B4: binds. B5: binds. B6: binds. B7: binds. B8: binds. B9: binds. B10: binds.

What follows are binders tested against T3, biotinylated WT1 RMF pMHC complex (human) (assay: SPR (Biacore), biotinylated pMHC on CAP chip, BiTE as analyte 150 to 4.6875 nM, 1:1 binding model; clone #18 BiTE).
T3 construct: Soluble biotinylated complex loaded on the Biacore CAP chip; also called HLA-A2-WT1 RMF complex
B11 gave a Kd of 3 nM.

What follows are binders tested against T3, biotinylated WT1 RMF pMHC complex (assay: SPR (Biacore), biotinylated pMHC on CAP chip, BiTE as analyte 150 to 4.6875 nM, 1:1 binding model; clone #34 BiTE).
For B1, the Kd was 1.5 nM.

What follows are binders tested against T4, HLA-A2 on T2 cells alone (not pulsed with peptide) (human) (assay: flow cytometry, phage clones on T2 cells).
T4 construct: TAP-deficient HLA-A2+ T2 cells with no peptide added; Also used as the HLA-A2 that pulsed peptides stabilise; also called T2 alone; T2 cells left unpulsed
B2: no binding. B3: no binding. B12: no binding. B4: no binding. B5: no binding. B6: no binding. B7: no binding. B8: no binding. B9: no binding. B10: no binding. B13: no binding.
